Substrate in the data set: N[C@@H](Cc1ccc(Oc2cc(I)c(O)c(I)c2)c(I)c1)C(=O)O
As to the kind of experiment: cells, lysate or membranes. Particulars: other: net MCT8 transport, Michaelis-Menten analysis.

Method: Apparent Km values were calculated by fitting the plot of uptake rate (v) versus ligand concentration (5) to the Michaelis Menten equation: v=Vmax/(1+Km/S), wherein Vmax is the maximum uptake rate, and Km the Michaelis constant. Calculations were performed using the Slide Write Plus program version 5.01 (Advanced Graphics Software).

B1: MCT8 (Rattus norvegicus; G227D/I169T/S199P/T171I) (protein)
chain: MALPSPASEEAEGPCQEANQEYQEPVCSPVPEPEPEPEPEPEPEPEPVPVPPPEPQPEPEPQPLPDPAPLPVLGFEAEPVQEPEPTPTVETRGTARGFQPPEGGFGWIVVFAATWCNGSIFGIHNSVGILYSMLLEEEKEKNRQVEFQAAWVGALAMGMIFFCSPIVSTFIDRLGCRITATTGAAVAFIGLHTSSFTSPLSLRYFTYGILFGCGCSFAFQPSLVILDHYFQRRLGLANGVVSAGSSIFSMSFPFLIKMLGDRIKLAQTFQVLSTFMFVLTLLSLTYRPLLPSSQDTPSKRGAHTLRQRFLVQFRKYFNMRVFRQRTYRIWAFGIAAAALGYFVPYVHLMKYVEDKFKEIKETWVLLVCIGATSGLGRLVSGHISDSIPGLKKIYLQVLSFLLLGLMSMMIPLCRDFGGLIVVCLFLGLCDGFFITIMAPIAFELVGPMQASQAIGYLLGMMALPMIAGPPIAGLLRNCFGNYHVAFYFAGVPPIIGAVILFFVPLMHQRMFKKEQRESSKDKMLSHDPDPNGELLPGSPTPEEPI
For the protein B1, the Km (commonly the substrate concentration at which the rate is half of its maximum) was 2.2 µM.

Source of the values: patent US20050159352A1, “Use of monocarboxylate transporter protein for thyroid hormone transport” (priority 2002, published 2005).
